# Test results taken from patent publication US12391751B2, “Antibody against advanced glycation end products and use thereof” (Bloom Technology Corporation, priority 2018, dated 2025).
# How the values were obtained:
# CEL-AGEs-BSA = CEL-AGEs-BSA (Bos taurus, UniProt P02769); assay: Specificity of PB-1 by competitive ELISA (Example 30); assay type: binding; settings: A-peak-BSA or Glycer-AGEs-BSA immobilized, competitor 10 μg/mL, PB-1 0.05 μg/mL
# Method: A-peak-BSA or Glycer-AGEs-BSA prepared into a concentration of 1 μg/mL with a coating solution (Example 13) was added at 100 μL/well to a 96-well microtiter plate (Costar) and immobilized overnight at 4° C.
# The plate was washed three times with PBS containing 0.05% (v/v) Tween 20 (PBS-T) and then blocked with PBS-T containing 0.5% (w/v) gelatin for 1 hour.
# Bovine serum albumin (BSA), BSA containing AGEs derived from glucose (Glu-AGEs-BSA), BSA containing AGEs derived from fructose (Fru-AGEs-BSA), BSA containing AGEs derived from glycolaldehyde (Glycol-AGEs-BSA), BSA containing AGEs derived from glyceraldehyde (Glycer-AGEs-BSA), BSA containing NE-carboxyethyllysine (CEL-AGEs-BSA), BSA containing NE-carboxymethyllysine (CML-AGEs-BSA), BSA containing AGEs derived from glyoxal (GO-AGEs-BSA), BSA containing AGEs derived from methylglyoxal (MGO-AGEs-BSA), and A-peak-BSA diluted into 10 μg/mL with PBS-T containing 0.1% (w/v) gelatin were each added at 50 μL/well to the antigen-immobilized plate, and the PB-1 antibody diluted into 0.05 μg/mL with PBS-T containing 0.1% (w/v) gelatin was further added at 50 μL/well, stirred with a plate mixer, and then left standing at room temperature for 1 hour.
# After washing, peroxidase-labeled anti-mouse IgG (H+L) polyclonal antibody, F(ab′)2 fragment (Kirkegaard & Perry Laboratories, Inc.) diluted into 0.05 μg/mL with PBS-T containing 0.1% (w/v) gelatin was added at 100 μL/well and left standing at room temperature for 1 hour.
# After washing, ELISA POD substrate TMB kit (Nacalai Tesque, Inc.) was added at 100 μL/well and left standing at room temperature in the dark. Ten minutes later, color development was terminated by the addition of 2 N sulfuric acid (50 μL/well). Absorbance was measured at a dominant wavelength of 450 nm and a sub-wavelength of 650 nm with a microplate reader (Cytation 5, BioTek Instrument Inc.), and the absorbance at the sub-wavelength was subtracted from the absorbance at the dominant wavelength.
# The ordinate of the graph depicts change in absorbance relative to that of control BSA defined as 1. When A-peak-BSA and Glycer-AGEs-BSA were immobilized, the novel monoclonal antibody PB-1 was also positive to Glycol-AGEs-BSA, Glycer-AGEs-BSA, and A-peak-BSA and negative to Glu-AGEs-BSA, Fru-AGEs-BSA, CEL-AGEs-BSA, CML-AGEs-BSA, GO-AGEs-BSA, and MGO-AGEs-BSA in terms of specificity.
# [1] = system: HUVEC (human umbilical vein endothelial cells); assay: Neutralization test of vascular endothelial cell lumen formation inhibition (Example 14); assay type: cell-based; settings: antibody pre-reacted with Glycer-AGEs-BSA; HUVEC, 8 hours
# Method: Matrigel matrix (Corning Inc.) was placed in a refrigerator and thawed overnight. The thawed Matrigel matrix was added at 300 μL/well to a 12-well plate (Corning Inc.) and hardened by still standing at 37° C. for 1 hour in a CO2 incubator (ESPEC Corp.).
# 10 μL of Glycer-AGEs-BSA (10 mg/mL) prepared in Example 1 or 10 μL of control BSA (10 mg/mL), phosphate-buffered saline (PBS, FUJIFILM Wako Pure Chemical Corp.), and 90 μL of SJ-5 (10 mg/mL) or a control antibody (10 mg/mL) were added to a 1.5 mL tube (Watson) and left standing at room temperature for 10 minutes. Then, a supernatant was recovered by centrifugation at 14000 rpm for 15 minutes using a centrifuge (Thermo Fisher Scientific Inc.).
# HUVEC (human umbilical vein endothelial cells, National Institutes of Biomedical Innovation, Health and Nutrition, JCRB cell bank) was cultured in a 10 cm dish (Corning Inc.) using 10 mL of a medium for HUVEC (KAC Co., Ltd.).
# The cultured HUVEC was washed with 10 mL of PBS. Then, 1 mL of trypsin-EDTA (FUJIFILM Wako Pure Chemical Corp.) was added thereto and left standing at room temperature for 3 minutes. […]
# After the centrifugation, the supernatant was discarded, and precipitated cells were resuspended by the addition of 1 mL of a medium for HUVEC. […] Then, the number of live cells was counted in Auto Cell Counter EVE (NanoEnTek Inc.). […]
# Chain of CEL-AGEs-BSA (P02769 25-607): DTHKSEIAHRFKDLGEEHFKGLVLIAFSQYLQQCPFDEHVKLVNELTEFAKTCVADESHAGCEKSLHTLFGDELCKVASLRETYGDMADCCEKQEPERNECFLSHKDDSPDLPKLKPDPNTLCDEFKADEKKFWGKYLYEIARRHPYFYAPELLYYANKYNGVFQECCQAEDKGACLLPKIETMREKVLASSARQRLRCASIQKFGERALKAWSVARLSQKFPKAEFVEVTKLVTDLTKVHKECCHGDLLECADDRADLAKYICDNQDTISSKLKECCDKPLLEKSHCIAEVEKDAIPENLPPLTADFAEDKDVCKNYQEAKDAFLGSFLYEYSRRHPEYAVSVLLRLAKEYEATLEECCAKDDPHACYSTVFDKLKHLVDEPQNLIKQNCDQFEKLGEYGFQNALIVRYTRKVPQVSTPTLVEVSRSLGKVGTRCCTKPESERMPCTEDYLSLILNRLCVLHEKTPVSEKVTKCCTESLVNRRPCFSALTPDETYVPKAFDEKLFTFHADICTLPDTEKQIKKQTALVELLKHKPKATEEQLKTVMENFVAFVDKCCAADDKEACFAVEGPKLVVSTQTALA
specificity: reactivity with CEL-AGEs-BSA (CEL-AGEs-BSA),Molecule,neutralization of lumen formation inhibition by Glycer-AGEs-BSA [1]
negative,"PB-1: mouse monoclonal antibody raised against A-peak-BSA; heavy-chain variable region SEQ ID NO 18, light-chain variable region SEQ ID NO 22 (antibody, listed as Mus musculus, V domains shown) VH: EVRLQQSGPELVKPGTSVKISCKASGYSFTGYYMHWVKQSPVKSLEWIGRIIPYNGATSYNQNFKDKASLTVDKSSRTAYMDLHSLTSEDSAVYYCARSRYYGRAPYYFDYWGQGTTLTVSS VL: DVVVTQTPLSLPVSLGDQASISCRSSQSIVHSNGNTYLEWYLQKPGQSPKLLIYKVSNRFSGVPDRISGSGSGTDFTLKISRVEAGDLGVYSCFQGSHVPFTFGSGTKLEIK",–
–,"SJ-5: mouse monoclonal antibody raised against GAL13-MSA; heavy-chain variable region SEQ ID NO 4, light-chain variable region SEQ ID NO 8 (antibody, listed as Mus musculus, V domains shown) VH: EVMLVESGGRLVKPGGSLKLSCAASGFTFSSYGMSWVRQTPEKRLEWVATISGGGSYTYYPDSVKGRFTISRDNVKNNLYLQMSSLRSEDTALYYCARRGAYGDYGWFAYWGQGTLVTVSA VL: DIVLTQSPATLSVTPGDSVSLSCRASQSINNNLHWYQQKSHESPRLLIKCASQSISGIPSRFSGSGSGTDFTLSINSVETEDFGMYFCQQSNSWPLTFGAGTKLELK",neutralized
